Laboratory results published in article PMC12494797, “Multi-domain O-GlcNAcase structures reveal allosteric regulatory mechanisms” (Nature Communications, 2025).
One block for each molecule: values may come before it.

Key:
OgHAT (OgAT) = biological target: T1, OgHAT (OgAT) (Oceanicola granulosus, UniProt Q2CEE2); test: SPR (Biacore […]), […] equilibrium-binding fit
T1 construct: gene OG2516_04134; amine-biotinylated, captured on streptavidin CM5 chip; not known to form dimers

[1] = biological target: His-tagged Trichoplax adhaerens OGA pHAT domain (TapHAT) (Trichoplax adhaerens); test: SEC; analytical; Superdex 200 Increase 10/300 GL; 500 μL of His-tagged pHAT at 1 mg/mL; 25 mM Tris pH 7.5, 150 mM NaCl, 0.5 mM TCEP; LMW calibration standards
[2] = biological target: the molecule itself; test: as above
[3] = biological target: the molecule itself; test: cryo-EM structure; 0.5 mg/mL hOGA or TaOGA vitrified at 4 °C; Titan Krios 300 kV; CryoSPARC

T1 sequence (Q2CEE2 whole entry): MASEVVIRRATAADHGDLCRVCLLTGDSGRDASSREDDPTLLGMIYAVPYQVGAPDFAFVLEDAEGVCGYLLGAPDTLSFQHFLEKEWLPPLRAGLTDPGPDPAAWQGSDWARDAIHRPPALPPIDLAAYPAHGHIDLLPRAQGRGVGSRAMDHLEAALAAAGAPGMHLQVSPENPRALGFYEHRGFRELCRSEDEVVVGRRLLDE

Kd (OgHAT (OgAT)): 5 mM
Molecule: CC(=O)SCCNC(=O)CCNC(=O)[C@H](O)C(C)(C)COP(=O)(O)OP(=O)(O)OC[C@H]1O[C@@H](n2cnc3c(N)ncnc32)[C@H](O)[C@@H]1OP(=O)(O)O [acetyl-CoA]

stoichiometry N [1]: 2
Molecule: His-tagged Trichoplax adhaerens OGA pHAT domain (TapHAT) (domain or fragment)

The remaining lines, values behind:

B1: His-tagged human OGA pHAT domain (hpHAT) (domain or fragment, UniProt O60502 710-916, looked up)
chain: PTSKVYTIRPYFPKDEASVYKICREMYDDGVGLPFQSQPDLIGDKLVGGLLSLSLDYCFVLEDEDGICGYALGTVDVTPFIKKCKISWIPFMQEKYTKPNGDKELSEAEKIMLSFHEEQEVLPETFLANFPSLIKMDIHKKVTDPSVAKSMMACLLSSLKANGSRGAFCEVRPDDKRILEFYSKLGCFEIAKMEGFPKDVVILGRSL
notes: pHAT domain of human O-GlcNAcase (OGA), residues 710-916; non-cleavable 6xHis-tag; also called human pHAT; isolated human pHAT domain; source: E. coli BL21(DE3) pLysS, purified (NiNTA, Superdex 75)
stoichiometry N [2]: 2

B2: Trichoplax adhaerens O-GlcNAcase (TaOGA), residues 5-723 (enzyme, UniProt A0A0D5X2Y8 5-723, looked up)
chain: KFLSGVVEGFYGKPWSFEQRKTLFSNMAKWGLNTYMYGPKDDEKHRAAWKQAYSKREGDSLRALIRAAEESGILFIYAISPGVDITYSSNRDMKFLKDKLDQIRNFGCNSFAIFFDDIDTVMCLQDQEEFESFAAAQVEVTNEIYKYLGMPANFLFCPTEYCAARADPNVKESKYLVTVGTGLHSDIHIMWTGPKVVSNKISVESILELQTVLRRKPVIWDNIHANDYEQGRLNLGPYDCRPAELMESLNGIFTNPNCEFELNYVPIRTFSLWCQSKRTRFNYDVEKALEQSIREWTEEFCIPRLPDGYLLEADTSDTNVNEYMDDEMQSDSRPISPANSMETDKDELTVKDIRLLVELFYLPQKHGKTANDLLAQAKWLKSNFRIAALSRKPNDTSEGSNLDEHNTDYIAAKEWDKRFSKFRSICQIIHQFGDRLMTCRNRVLLYEVYNYVADLCGILYHLISRIHSLANPEKLEKRSDSEQSSFRYGGFVGDIHRLIVSTDEYEESTLKNSDAYVIRPFMPSDEETLYDLCLKSCIENSNGDEIYKREPRIIGDRDLGAYIYLHPEYIYVLEDDRDKICGYLCGALDSKQFYERYESEWLTQIRDRHPQPENDIASWTPEEIVANSFYNFTPPTDVSVLYLSHLEARFDSSVPEKVIKRIIRFILEQLKAKGSYGASMLIDSWRTNLRRIFTSMGFVDLQEYSWMSEQKCMIAIKLM
notes: TaOGA (TaOGA54), Trichoplax adhaerens, residues 5-723; the results call it full-length; also called TaOGA54; full-length TaOGA; source: E. coli BL21(DE3) pLysS, purified (Ni-NTA, PreScission cleavage, Superdex 200); not shown: His6, N-terminal, cleaved
binding result [3]: binds
